Reference: paper PMC4919432

Experiments:
[1] = target: Mec1·Ddc2 complex (yeast (budding yeast)) (UniProt P38111); assay: negative stain electron microscopy, single-particle reconstruction; 70 nM Mec1·Ddc2 in 30 mM HEPES pH 7.4, 200 mM NaCl, 5% glycerol, 0.5 mM EDTA, 1 mM DTT; 2% uranyl acetate; C2 symmetry applied; 22.5 Å
[2] = target: Mec1·Ddc2 complex (yeast (budding yeast)) (UniProt P38111); assay: SEC; Mec1·Ddc2 on Superose 6 HR 10/30, 0.3 ml/min; 50 mM HEPES-KOH pH 7.4, 200 mM KCl, 10% glycerol, 0.1% Tween 20, 0.01% Nonidet P-40, 1 mM EDTA, 1 mM EGTA, 2 mM DTT; size against Bio-Rad gel filtration standards; peak fractions on SDS-PAGE
[3] = target: Tel1 (yeast (budding yeast)) (UniProt P38110); assay: cryo-EM structure; 20 nM Tel1 in 50 mM HEPES-KOH pH 7.4, 210 mM KCl, 1% glycerol, 0.02% Tween 20, 0.002% Nonidet P-40, 1 mM EDTA, 0.5 mM EGTA, 1 mM DTT, 0.5 mM MgCl2; holey carbon grids with a thin carbon layer; 19.2 Å
[4] = target: Tel1 (yeast (budding yeast)) (UniProt P38110); assay: negative stain electron microscopy, single-particle reconstruction; 20 nM Tel1 in 50 mM HEPES pH 7.4, 150 mM NaCl, 5% glycerol, 1 mM EDTA, 1 mM DTT; 2% uranyl acetate; C2 symmetry applied; 21 Å (FSC 0.5)
[5] = target: Tel1 (yeast (budding yeast)) (UniProt P38110); assay: SEC; Tel1 on Superose 6 Increase 5/150 GL, 0.1 ml/min; 50 mM HEPES-KOH pH 7.4, 200 mM KCl, 10% glycerol, 0.1% Tween 20, 0.02% C12E10, 1 mM EDTA, 3 mM DTT; size against Bio-Rad gel filtration standards

Substance | percent of particles of the size of the dimer [1] [%] | stoichiometry N [1] | stoichiometry N [2] | stoichiometry N [3] | stoichiometry N [4] | stoichiometry N [5]
Mec1·Ddc2 complex, P38111 1-2368; Q04377 1-747 | 81 | 2 | 2 | – | – | –
Tel1, P38110 1-2787 | – | – | – | 2 | 2 | 2
